Results published in the nanobody polyreactivity screen of Harvey et al. (2022).

Test: yeast display, Sf9 membrane polyspecificity reagent, FACS + sequencing; frameworks hold sequencing errors
Method in brief: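 Using colony PCR, genes from sorted yeast display clones were amplified, then sequenced on MiSeq at 2 × 250 and filtered by CDR length. The clones had been stained with 10% biotinylated, detergent-solubilized Sf9 membrane reagent for 1 hour at 4 °C and sorted by FACS into low and high (top ~1%) gates on anti-HA and streptavidin fluorescence. Polyreactivity labels come from the gate of origin.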

Sequence	polyreactivity (PSR sort gate)
QVQLVESGGGLVQAGGSLRLSCAASGRTFAPYAMGWYRQAPGKERELVAGITYRTGNTYYADSVKGRFTISRDNAKNTVYLQMNSLKPEDTAVYYCAAYSGYYRPRYNYWGQGTQVTVSS	high polyreactivity
QVQLEESGGGLVQAGGSLRLSCAASGSTFAGNAMGWYRQAPGKERELVAAISGSGGITYYADSVKGRFTISRDNAKNTVYLQMNSLKAEDTAVYYCNAYYWFSRYGYWGQGTQVNVSS	high polyreactivity
QVQLVESGGGLVQAGGSLRLSCAASGRTFFRNVMGWYRQAPGKERELVAGITWTGGTTYYADSVKGRFTISRDNAKNTVYLQMNSLKPEDTAVYYCATRNYAVVPSVRREGYYWGQGTQVTVSS	low polyreactivity
QVQLVESGGGLVQAGCSLRLSCASSGSIFGRYAMGWYRQAPGKERELVAAISRGGSTNYADSVKGRFTISRDNAKNTVYLQLNSLKPEDTAVYYCNRKPYYVSSTRYDYWGQGSQVTVSS	high polyreactivity
QVQIEESGGGLVQAGGSLRLSCAASGSIFPLYTMGWSRQAPGKERELVAAIDFRGGSTYYADSVKGRFTISRDNAKNSVYLQMNSLKPEDTAVYYCAAAYWAYDTGKMGYWGQGTQVTVSS	low polyreactivity
QVQLVESGGGLVQAGGSLRLSCAASGSTFRWNAMGWYRQAPGKERELVAAITRSGGSTYYADSVKGRFTISRDNAKNTVYLQMNSLKPEDTAVYYCAAGYYTARRIRSDYWGQGTQVTVSS	high polyreactivity
QVQLVESGGGLVQAGGSLSLSCAASGRIFRRYAMGWYRQAPGKEREFVAAISYGGGSTYYADSVKGRFTISRDNAKNTVYLQMNSLKPEDTAVYYCNADVPKSLLLYYPWGYGYWGQGTQVTVSS	low polyreactivity
QVQLVESGGGLVQAGGSLRLSCAASGGTFYRYAMGWYRQAPGIERELVAAISGGRGRTYYADSVKGRFTISRDNAKNTVYLQMNSLKPVDTAVYYCSNKPYGAVSGSDYDYWGQGTQVTVSS	high polyreactivity
QVQLVESGGGLVQAGGSLRLSCAASGFIFVANAMGWYRQAPGKEREFFAAISSSGGRTYYADSVKGRFTISRDNAKNTVYLQMNSLKPEDTAVYYCAKDRVFSRRGFGYWGQGTQVTVSS	low polyreactivity
QVQLVESGGGLVQAGGSLRLSCAASGITFTEYAMGWYRQAPGKERELVAAITGSGTSTYYADSVKGRFTISRDNAKNTVYLQMNSLKPEDTAVYYCAAERKNKYDYWGQGTQVTVSS	high polyreactivity
HVQLVESGGGLVQAGGSLRLSCAASGRIFGVYVMGWYRPAPGKERELVAGISPSGGSTYYADSVKGRFTISRDNAKNTVYLQMNSLKPEDTAVYYCAAVLRIRRPRYGYWGQGTQVTVSS	high polyreactivity
QVQLVESGGGLVQAGGSLRLSCAASGFTLTRKAMGWYRQAPGKERELVAAISRSGGSTYYADSVKGRFTISRDNAKNTVYLQMNSLKPEDTAVYYCNAGYGYGYPKYDYWGQGTQVTVSS	high polyreactivity
QVQLVESGGGLVQAGGSLRLSCAASGSIFDWYDMGWYRQAPRKEGELVAAISSGDSSYYADSVKGRFTISRDNAKNTVYFQIISLKPEDTAVYFCAAVTKLSGIRYNYWGQGTQLTVSS	low polyreactivity
QVQLVESGGGLVQAGGSLSLSCAASGSTFYFNAMGWYRQAPGKERELVATIRSGDSTYYADSVKGRFTISRDNAKNTVYLQMNRLKPEDTAVYYCAAVSTYFSSTFTEYDYWGQGTQVTVST	low polyreactivity
QVQLVESGGGLVQAGGSLRLSCAASGRIFAVYVMGWYRQAPGKERELVAAISQSGGRTYYADSVKGRFTISRDNAKNTVYLQMNSLKPEDTAVYYCNTVTSRATNFSGFGYWGQGTQVTVSS	high polyreactivity
QVQLVESGGGLVQAGGSLRLSCAASGRTFGYYTMGWYRQAPGKERELVARINYIGSSTYYADSVKGRFTISRDNAKNTVYLHMNSLKPEDTAVYYSNADNARGRSGVRRYYWGQGTQVTVSS	high polyreactivity
QVQLVESGGALVQAGGSLRLSCAASGFIFDAYAMGWYRQAPGKERELVPAIDYSGGNTYYADSVKGRFTISRDYAKNTVYLQMNSLKTEDTAVYYCNADYAGSFWSREYDYWGQGTQVTVSS	low polyreactivity
QVQLVESGGGLVQAGGSLRLSCAASGRIFPLYAMGWYRQAPGKERELDAAISKRDGSTSYADSVKGRFTISRDNAKNTVYLQMNSLKPVDTAVYYCNARNHVQVLFRRDYWGQGTQVTVSS	low polyreactivity
QVQLVESGGGLVQAGGSLRLSCAASGRTFPYNVMGGYRQAPGKERELVASNDGSGGSTYYADSVKGRFTISRDNAKKTVYLQMNSLKPEDTAVYYCAAVYYQSGNYWYSYLGQSPYDYWGQGTQVTVSS	low polyreactivity
QVQLVESGGGLVQAGGSLRLSCAASGLTFAENAMGWYRQAPGKERELVAAISASGGSTYYADSVKGRFTISRDNAKNTVFLQMNSLKPEDTAVYYCATRVAFLWPRRDYDYWGQGTQVTVSS	low polyreactivity
QVQLVESGGGLVQAGGSLRLSCAASGRTFYRYAMGWYRQAPGKERELVAGITSGGITYYADSVKGRFTISRDNAKNTVYLQMNSLKPEDTAVYYCAASYAFFSYRAWYTSGNEYWGQGTQVTVSS	high polyreactivity
QVQLVESGGGLVHAGGSLRLSCAASGSIFRGYAMGWYRQAPGKERELVAAISRDGGSTYYADSVKGRFSISRDNAKNTVYLQMNSLKPEETAVYYCAADYVAYATYGDGDYWGQGTQVTVSS	high polyreactivity

Sequence	polyreactivity (PSR sort gate)
QVQLVESGGGLVQAGGSLRLSCAASGRIFHYYAMGWYRQAPGKERELVAAISWSGGSTYYADSVKGRFTISRDNAKNTVYLQMNSLKPEVTAVYYCNRQFGRRVYISHPGPGYWGQGTQVTVSS	high polyreactivity
QVQLVESGGGLVQAGGSLRLSCADSGRTFWGYSMGCYRQAPGKERELVAAITWNGGRTYYADSVKGRFTISRDNAKNTVYLQMNSLKPEDTAVYYCAAGYPRFGYDYWGQGTQVTVSS	high polyreactivity
QVQLVESGGGLVQAGGSLRLSCAASGLTFKKYAMGWYRPAPGKERELVAAISSGSTTYYADSVKGRFTISRDNAKNTVYLQMNSLKPEDTAFYYCAARRKGTVASMGYWGQGTQVTVSS	high polyreactivity
QVQLVESGGGLVQAGGSLRLSCAASGRTFGFYAMGWYRQAPGKEREFVAAIYKSGGSTYYADSVKGRFTISRDIANNTVYLQMISLKPEDTAVYYCIKKVGSYYRSYYYWGQGTQVTVSS	high polyreactivity
QVQLVESGGGLVQAGGSLRLSCAASGRIIYNYAMGWYRQAPGKERELVAAITRSGGSTYYADSVKGRFTISRDNAKNTVYLQMNSLKPEDTAVYYCNATRGFGPPYFYWGQGTQVTVSS	high polyreactivity
QVQLVESGGGLVKAGGSLRLSCAASGITFLYYAMACYRQAPGKERELVAAISTSGGSTYYSDSVKGRFTISRDNAKNTVYLQMNSLKPEDTAVYYCAKSVGVGGEDRVGSWGQGTQVTVSS	low polyreactivity
QVQLVESAGGLVQAGGSLRLSCAASGYIFSYNAMGGYRQAPGKERELVAAITASGGGTYYADSVKGRFTISRDNAKNTVYLHMNSLKQEDTAVYYCAADLSWSRVVFGDYDYWGQGTQVTVSS	low polyreactivity
QVQLVESGGGLVQAGGSLRLSCAASGINFWNYAMGWYRQAPGKERELVAAISSSSGRTYYADSVKGRFTISRDNAKNTVYLQMNSLKPEDTAVYYCAARRSFARRFKNSMEYWGQGTQVTVSS	high polyreactivity
QVHLVESGGGLVQAGGSLRLSCAASGSTFGYYTMGWYRQAPGKERELVAAISGSGDSTYYADSVKGRFTISRDNAKNTVYLQMNSLKPEDTAVYYCAKRYYKRYNYWGQGTQVTVSS	high polyreactivity
QVQLVESAGGIVQAGGSLRLSCAASESIFETYDMGCYRQAPGTERELVAAITLSGGSTYYADSVKGRFTISRDNAKNTVYLQMNSLKPEDTAVYYCAADDSGVKVWEGDYWGQGTQVTVSS	low polyreactivity
QVQLVESGGGLVQAGGSLRLSCGASGRIFGINAMGWYRQAPGKERELVAAITKSGGTTYYADSVKGRFTISRDNAKNTVYLQMNTLKPEDTAVYYCAAKGSVVYQLRYDYWGQGTQVTVSS	high polyreactivity
QVQLVESGGGLVQAGGILRLSCAASGFIFRRYAMGWYRQEPGKERELVAAINYSGGSTYYADSVKGRFTISRDNAKNTVYLKMNSLKPEDTAVYYCAAGSRRGIDPGSDYWGQGNQVTVSS	low polyreactivity
QVQLVESGGGLVQAGGSLRLSCAASGSIFTYYAMGWYRQAPGKERELVAAISLDGGSTYYADSVKGRFTISRDNAKNTVYLQMNSLKPEDTAVYYCAADYRFFPYTYLYDYWGQGTQVTVSS	low polyreactivity
QVQLVESGGGLVQAGGSLRLSCAASGFTIWRYAMGWYRQAPWKARELVAAISRGGSTNYADSVKGRFTISRDNAKNTVYLQMNSLKPEDTAVYYCAASVQYRRLKKFYYWGQGTQVTVSS	high polyreactivity
QVQLVESGGGLVQAGGSLRLSCAASGGIFPFYAMGWYRQAPGKERELVAAISGIGDSTYYADSVKGRFTISRDNAKNTVYLQMNSLKPEDTAVYYCAREFSDGLSGKFDYWGQGTQVTVSS	low polyreactivity
QVQLEESGGGLVQAGGSLRLSCAASGLICVLYTMGSYRQAPGKERELVATINWGGGNTYYADSVKGRFTISRDNAKNTVYLQMNSLKPEDTAVYYCAAAYTWYGYSQAYYYWGQGTQVTVSS	low polyreactivity
QQLQESGGGLVQAGGSLRLSCAASGSISGSVLMGLYRQAPGKEREFVASISLGGNTNYADSVKGRFTISRENGKITVFLQMNSLKPEVAAVYYCAAYISLFETHPYWGQGTQVTVRS	high polyreactivity
QVQLVESGGGLVQAGGSLRLSCAASGRTFGKNAMGWYRQAPGKEREYVAAITSRGGSTYYADSVKGRFTISRDNAKNTVYLKMYSLKPDDTAFYFCNREYKRPSQRTEHYYWGQGTQVTVSS	low polyreactivity
QVQIVESGGGLVQAGGSLRLSCAASGFNYRGYAMGWYRQAPGKERELVASIRWNGGSTYYADSVKGRFTISRDNAKNTVYLLMNSLKPEDTAVYYCAAAYRYYGVAYGYDWGQGTQVTVSS	high polyreactivity
QVQLVESGGCLVPAGGSLRLSCAASGHTFSSYAMGWYRQAPGKERELVAAISVSATRTYYADSVKGRFTISRDNAKNTVYLQMNSLKPEDTAVFYCAARPVQFTYGYWGQGTQVTVSS	high polyreactivity
QVQLVESGGGLVQAGGSLRLSCAASGRIFHTYGRRWSRQAPGKEREFVAAITWTGGSTYYADSVKGRFTISRDNAKNTFYLQMNSLKPEDTAVYYCAADYPRDIIGSMDYWGQGTQVTVSW	low polyreactivity
